Drawing on PMC7704496, “RNA and DNA Binding Epitopes of the Cold Shock Protein TmCsp from the Hyperthermophile Thermotoga maritima”, this text covers Kd for 5 molecules.

What is called Kd is the free concentration of one partner at which half of the binding sites on the other are occupied at equilibrium, for simple one-to-one binding.

T1 sequence (O54310 whole entry): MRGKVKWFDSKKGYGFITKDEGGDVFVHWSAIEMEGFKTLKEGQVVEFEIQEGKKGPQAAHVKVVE

One series has as its target T1, TmCsp (cold shock protein) (Thermotoga maritima, UniProt O54310 1-66). As to the kind of experiment: Trp fluorescence quenching; 303 K; EMSA: 50 mM NaH2PO4 pH 6.5, 20 mM NaCl, 0.2 mM EDTA, room temperature 1 h, 20% gel in 1xTBE at 4 C; NMR: 50 mM sodium phosphate pH 6.5, 20 mM NaCl, 0.2 mM EDTA. Conditions: protein: recombinant; tags: none stated; chain copies: 2; label: none (5'-fluorescein in EMSA); single strand. In general terms: A gel shift assay detects complexes by their altered migration in electrophoresis.
For GGGGGGG (ssDNA) [(dG)7], the Kd was 3400 ± 100 nM.
The same measure, in the same setting: to TTTTTTT (ssDNA) [(dT)7] belongs 4 ± 0.2 nM; to CCCCCCC (ssDNA) [(dC)7], 2800 ± 100 nM.
Same read-out and setting: in the case of UUUUUUU (ssRNA) [(rU)7] it was 10.8 ± 0.8 nM.
Same read-out and setting: in the case of AAAAAAA (ssDNA) [(dA)7] it was 5000 ± 200 nM.

The next series concerns the target T1, TmCsp (cold shock protein). As to the kind of experiment: Trp fluorescence quenching; 343 K; EMSA: 50 mM NaH2PO4 pH 6.5, 20 mM NaCl, 0.2 mM EDTA, room temperature 1 h, 20% gel in 1xTBE at 4 C; NMR: 50 mM sodium phosphate pH 6.5, 20 mM NaCl, 0.2 mM EDTA. The conditions noted are these: protein: recombinant; tags: none stated; chain copies: 2; label: none (5'-fluorescein in EMSA); single strand.
GGGGGGG (ssDNA) [(dG)7]: the Kd worked out at 5.6 ± 0.1 µM.
TTTTTTT (ssDNA) [(dT)7]: the Kd worked out at 1.6 ± 0.04 µM.
Take CCCCCCC (ssDNA) [(dC)7]: the Kd stood at 11 ± 0.1 µM.
The same measure, in the same setting: to UUUUUUU (ssRNA) [(rU)7] belongs 17.4 ± 0.1 µM.

In a further series the target is T1, TmCsp (cold shock protein). As to the kind of experiment: Trp fluorescence quenching; 323 K; EMSA: 50 mM NaH2PO4 pH 6.5, 20 mM NaCl, 0.2 mM EDTA, room temperature 1 h, 20% gel in 1xTBE at 4 C; NMR: 50 mM sodium phosphate pH 6.5, 20 mM NaCl, 0.2 mM EDTA. The conditions noted are these: protein: recombinant; tags: none stated; chain copies: 2; label: none (5'-fluorescein in EMSA); single strand.
For the molecule TTTTTTT (ssDNA) [(dT)7], the Kd came out at 440 ± 20 nM.
Still for that read-out and setting: in the case of UUUUUUU (ssRNA) [(rU)7] it was 1520 ± 10 nM.
